One data set concerns the target TIE2 (Homo sapiens) (UniProt Q02763). The following applies: cited from earlier work.
Data set [1] deals with the molecule itself. Briefly: non-reducing SDS polyacrylamide gel electrophoresis; purified recombinant angiopoietins run under non-reducing and reducing (1% 2-mercaptoethanol) conditions; oligomerization and multimerization states.

This is an account of results in paper PMC6239434, “Angiopoietin-4-dependent venous maturation and fluid drainage in the peripheral retina” (eLife, 2018).

Sequence of TIE2 (Homo sapiens) (Q02763 23-748): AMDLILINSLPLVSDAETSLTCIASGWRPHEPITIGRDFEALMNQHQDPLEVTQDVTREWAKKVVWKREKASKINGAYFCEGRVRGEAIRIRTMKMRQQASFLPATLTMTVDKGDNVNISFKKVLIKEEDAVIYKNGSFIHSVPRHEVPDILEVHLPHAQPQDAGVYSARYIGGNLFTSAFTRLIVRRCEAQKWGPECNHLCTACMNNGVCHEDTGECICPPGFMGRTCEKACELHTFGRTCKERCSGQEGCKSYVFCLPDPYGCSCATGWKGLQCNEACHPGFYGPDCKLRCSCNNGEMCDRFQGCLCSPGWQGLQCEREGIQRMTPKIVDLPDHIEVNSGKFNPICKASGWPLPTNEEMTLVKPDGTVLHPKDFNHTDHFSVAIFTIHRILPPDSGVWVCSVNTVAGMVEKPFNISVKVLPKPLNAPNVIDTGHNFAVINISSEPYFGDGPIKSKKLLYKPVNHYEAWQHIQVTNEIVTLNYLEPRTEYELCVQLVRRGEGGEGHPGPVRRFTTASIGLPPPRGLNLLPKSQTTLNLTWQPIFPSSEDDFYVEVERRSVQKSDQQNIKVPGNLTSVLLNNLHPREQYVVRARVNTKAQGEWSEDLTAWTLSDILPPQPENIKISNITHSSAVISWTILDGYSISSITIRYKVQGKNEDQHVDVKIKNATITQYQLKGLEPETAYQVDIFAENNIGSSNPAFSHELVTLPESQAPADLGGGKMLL

What is called Kd is the equilibrium constant for the complex coming apart. In the case of Angiopoietin-1 (from UniProt Q15389), the Kd with TIE2 (Homo sapiens) is 3.7 nM.

B1: Purified recombinant human ANGPT4 (ligand, UniProt Q9Y264 25-503, looked up)
chain: TRQEADRGCETLVVQHGHCSYTFLLPKSEPCPPGPEVSRDSNTLQRESLANPLHLGKLPTQQVKQLEQALQNNTQWLKKLERAIKTILRSKLEQVQQQMAQNQTAPMLELGTSLLNQTTAQIRKLTDMEAQLLNQTSRMDAQMPETFLSTNKLENQLLLQRQKLQQLQGQNSALEKRLQALETKQQEELASILSKKAKLLNTLSRQSAALTNIERGLRGVRHNSSLLQDQQHSLRQLLVLLRHLVQERANASAPAFIMAGEQVFQDCAEIQRSGASASGVYTIQVSNATKPRKVFCDLQSSGGRWTLIQRRENGTVNFQRNWKDYKQGFGDPAGEHWLGNEVVHQLTRRAAYSLRVELQDWEGHEAYAQYEHFHLGSENQLYRLSVVGYSGSAGRQSSLVLQNTSFSTLDSDNDHCLCKCAQVMSGGWWFDACGLSNLNGVYYHAPDNKYKMDGIRWHYFKGPSYSLRASRMMIRPLDI
notes: human angiopoietin-4 (ANGPT4), purified recombinant protein from R & D Systems; Forms dimeric and higher oligomeric/multimeric complexes on non-reducing SDS-PAGE; also called angiopoietin-4; source: bought: R & D Systems (purified recombinant)
Take B1: the binding result in data set [1] is given as “binds”.

B2: Purified recombinant human ANGPT2 (ligand, UniProt O15123 19-496, looked up)
chain: YNNFRKSMDSIGKKQYQVQHGSCSYTFLLPEMDNCRSSSSPYVSNAVQRDAPLEYDDSVQRLQVLENIMENNTQWLMKLENYIQDNMKKEMVEIQQNAVQNQTAVMIEIGTNLLNQTAEQTRKLTDVEAQVLNQTTRLELQLLEHSLSTNKLEKQILDQTSEINKLQDKNSFLEKKVLAMEDKHIIQLQSIKEEKDQLQVLVSKQNSIIEELEKKIVTATVNNSVLQKQQHDLMETVNNLLTMMSTSNSAKDPTVAKEEQISFRDCAEVFKSGHTTNGIYTLTFPNSTEEIKAYCDMEAGGGGWTIIQRREDGSVDFQRTWKEYKVGFGNPSGEYWLGNEFVSQLTNQQRYVLKIHLKDWEGNEAYSLYEHFYLSSEELNYRIHLKGLTGTAGKISSISQPGNDFSTKDGDNDKCICKCSQMLTGGWWFDACGPSNLNGMYYPQRQNTNKFNGIKWYYWKGSGYSLKATTMMIRPADF
notes: human angiopoietin-2 (ANGPT2), purified recombinant protein from R & D Systems; Runs predominantly as disulfide-linked dimers on non-reducing SDS-PAGE; also called angiopoietin-2; source: bought: R & D Systems (purified recombinant)
By stoichiometry N is commonly meant a count of units in the complex or per binding partner. As for B2, the “stoichiometry N” value in data set [1] is 2.

B3: Purified recombinant human ANGPT1 (ligand, UniProt Q15389 16-498, looked up)
chain: HIGCSNQRRSPENSGRRYNRIQHGQCAYTFILPEHDGNCRESTTDQYNTNALQRDAPHVEPDFSSQKLQHLEHVMENYTQWLQKLENYIVENMKSEMAQIQQNAVQNHTATMLEIGTSLLSQTAEQTRKLTDVETQVLNQTSRLEIQLLENSLSTYKLEKQLLQQTNEILKIHEKNSLLEHKILEMEGKHKEELDTLKEEKENLQGLVTRQTYIIQELEKQLNRATTNNSVLQKQQLELMDTVHNLVNLCTKEGVLLKGGKREEEKPFRDCADVYQAGFNKSGIYTIYINNMPEPKKVFCNMDVNGGGWTVIQHREDGSLDFQRGWKEYKMGFGNPSGEYWLGNEFIFAITSQRQYMLRIELMDWEGNRAYSQYDRFHIGNEKQNYRLYLKGHTGTAGKQSSLILHGADFSTKDADNDNCMCKCALMLTGGWWFDACGPSNLNGMFYTAGQNHGKLNGIKWHYFKGPSYSLRSTTMMIRPLDF
notes: human angiopoietin-1 (ANGPT1), purified recombinant protein from R & D Systems; Forms various-sized oligomers/multimers on non-reducing SDS-PAGE; also called angiopoietin-1; source: bought: R & D Systems (purified recombinant)
In the case of B3, the binding result in data set [1] is recorded as “binds”.

B4: Purified recombinant mouse Angpt4 (ligand, UniProt Q9WVH6 22-509, looked up)
chain: QHRGPEAGGHRQIHQVRRGQCSYTFVVPEPDICQLAPTAAPEALGGSNSLQRDLPASRLHLTDWRAQRAQRAQRVSQLEKILENNTQWLLKLEQSIKVNLRSHLVQAQQDTIQNQTTTMLALGANLMNQTKAQTHKLTAVEAQVLNQTLHMKTQMLENSLSTNKLERQMLMQSRELQRLQGRNRALETRLQALEAQHQAQLNSLQEKREQLHSLLGHQTGTLANLKHNLHALSSNSSSLQQQQQQLTEFVQRLVRIVAQDQHPVSLKTPKPVFQDCAEIKRSGVNTSGVYTIYETNMTKPLKVFCDMETDGGGWTLIQHREDGSVNFQRTWEEYKEGFGNVAREHWLGNEAVHRLTSRTAYLLRVELHDWEGRQTSIQYENFQLGSERQRYSLSVNDSSSSAGRKNSLAPQGTKFSTKDMDNDNCMCKCAQMLSGGWWFDACGLSNLNGIYYSVHQHLHKINGIRWHYFRGPSYSLHGTRMMLRPMGA
notes: mouse angiopoietin-4 (Angpt4, previously named Ang3), purified recombinant protein from R & D Systems; also called angiopoietin-4; Ang3; source: bought: R & D Systems (purified recombinant)
Regarding B4, the binding result in data set [1] was “binds”.
